Data taken from the supplement of paper PMC5998384.

What was measured:
[1] = system: HeLa Kyoto; test: solubility in G1/S (NP-40 vs SDS abundance) (log2 ratio); higher = more soluble; details: cell cycle stage: G1/S
[2] = system: HeLa Kyoto; test: solubility change mitosis vs G1/S (difference of NP-40 vs SDS log2 ratios) (log2 ratio difference); higher = more soluble in mitosis
[3] = system: HeLa Kyoto; test: thermal stability score vs G1/S (z-score of summed log2 fold changes over temperatures); higher = more thermally stable than in G1/S
[4] = cell cycle stage: early G1 (4.5 h after nocodazole release)
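For solubility change mitosis vs G1/S (difference of NP-40 vs SDS log2 ratios) in this document: synchronized HeLa Kyoto cells (double thymidine block for G1/S, nocodazole release for mitosis), protein amounts in NP-40 versus SDS lysates quantified by mass spectrometry, three biological replicates.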
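For solubility in G1/S (NP-40 vs SDS abundance) in this document: HeLa Kyoto cells arrested at G1/S by double thymidine block, proteins quantified by TMT10plex mass spectrometry in mild NP-40 versus SDS extracts, three biological replicates.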
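For thermal stability score vs G1/S (z-score of summed log2 fold changes over temperatures) in this document: synchronized HeLa Kyoto cells, proteins quantified by TMT10plex mass spectrometry, three biological replicates, mitosis taken 0.5 h after nocodazole release, G1/S directly after double thymidine block.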

Chain of DENND4A (chain, as listed by the source): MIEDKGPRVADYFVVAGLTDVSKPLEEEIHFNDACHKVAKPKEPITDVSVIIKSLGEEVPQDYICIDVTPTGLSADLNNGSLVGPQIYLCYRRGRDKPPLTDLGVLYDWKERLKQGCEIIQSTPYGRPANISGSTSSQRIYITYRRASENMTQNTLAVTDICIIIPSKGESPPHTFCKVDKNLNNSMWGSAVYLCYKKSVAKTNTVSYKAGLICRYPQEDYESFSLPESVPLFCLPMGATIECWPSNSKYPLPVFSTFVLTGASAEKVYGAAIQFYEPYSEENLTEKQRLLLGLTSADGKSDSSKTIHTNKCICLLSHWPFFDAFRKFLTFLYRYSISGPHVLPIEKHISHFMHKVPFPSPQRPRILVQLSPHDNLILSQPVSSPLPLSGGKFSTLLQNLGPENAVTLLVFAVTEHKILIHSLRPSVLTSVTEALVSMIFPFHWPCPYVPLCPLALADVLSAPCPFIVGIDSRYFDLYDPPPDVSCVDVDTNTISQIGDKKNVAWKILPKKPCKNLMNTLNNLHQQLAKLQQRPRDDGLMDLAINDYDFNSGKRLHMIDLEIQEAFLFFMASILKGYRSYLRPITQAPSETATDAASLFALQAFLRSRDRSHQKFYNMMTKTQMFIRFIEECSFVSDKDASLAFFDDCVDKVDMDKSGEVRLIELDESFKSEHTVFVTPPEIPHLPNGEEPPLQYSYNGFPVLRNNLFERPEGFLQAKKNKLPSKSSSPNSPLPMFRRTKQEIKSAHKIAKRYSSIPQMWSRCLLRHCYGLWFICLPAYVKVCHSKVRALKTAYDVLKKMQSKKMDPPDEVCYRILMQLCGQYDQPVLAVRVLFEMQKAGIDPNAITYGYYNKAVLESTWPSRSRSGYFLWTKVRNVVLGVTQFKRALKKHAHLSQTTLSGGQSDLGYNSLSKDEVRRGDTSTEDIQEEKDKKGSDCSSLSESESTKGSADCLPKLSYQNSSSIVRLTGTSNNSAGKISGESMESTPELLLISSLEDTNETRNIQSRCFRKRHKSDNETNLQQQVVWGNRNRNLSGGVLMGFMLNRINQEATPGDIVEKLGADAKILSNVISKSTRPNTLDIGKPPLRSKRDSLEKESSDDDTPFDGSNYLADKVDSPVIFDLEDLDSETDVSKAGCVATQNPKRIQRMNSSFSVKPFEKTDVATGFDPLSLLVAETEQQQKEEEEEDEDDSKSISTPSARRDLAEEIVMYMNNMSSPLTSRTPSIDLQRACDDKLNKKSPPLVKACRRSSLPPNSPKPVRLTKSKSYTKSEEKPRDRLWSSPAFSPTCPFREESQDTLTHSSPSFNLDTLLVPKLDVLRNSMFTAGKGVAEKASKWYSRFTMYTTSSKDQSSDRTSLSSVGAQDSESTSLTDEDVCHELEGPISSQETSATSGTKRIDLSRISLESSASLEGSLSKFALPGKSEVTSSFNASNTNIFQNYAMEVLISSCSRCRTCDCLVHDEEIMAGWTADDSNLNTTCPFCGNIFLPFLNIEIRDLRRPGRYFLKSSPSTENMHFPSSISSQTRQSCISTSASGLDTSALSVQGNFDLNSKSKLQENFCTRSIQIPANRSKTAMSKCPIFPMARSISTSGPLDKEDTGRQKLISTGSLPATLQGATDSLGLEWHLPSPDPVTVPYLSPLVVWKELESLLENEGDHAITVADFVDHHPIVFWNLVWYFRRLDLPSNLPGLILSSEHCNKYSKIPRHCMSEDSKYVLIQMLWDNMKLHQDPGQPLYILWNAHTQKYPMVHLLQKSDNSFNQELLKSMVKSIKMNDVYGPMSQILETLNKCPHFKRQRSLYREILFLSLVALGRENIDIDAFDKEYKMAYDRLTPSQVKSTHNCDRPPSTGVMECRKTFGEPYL

Substance: MAAVDSDVESLPRGGFRCCLCHVTTANRPSLDAHLGGRKHRHLVELRAARKAQGLRSVFVSGFPRDVDSAQLSEYFLAFGPVASVVMDKDKGVFAIVEMGDVGAREAVLSQSQHSLGGHRLRVRPREQKEFQSPASKSPKGAAPDSHQLAKALAEAADVGAQMIKLVGLRELSEAERQLRSLVVALMQEVFTEFFPGCVVHPFGSSINSFDVHGCDLDLFLDLGDLEEPQPVPKAPESPSLDSALASPLDPQALACTPASPPDSQPPASPQDSEALDFETPSSSLAPQTPDSALASETLASPQSLPPASPLLEDREEGDLGKASELAETPKEEKAEGAAMLELVGSILRGCVPGVYRVQTVPSARRPVVKFCHRPSGLHGDVSLSNRLALHNSRFLSLCSELDGRVRPLVYTLRCWAQGRGLSGSGPLLSNYALTLLVIYFLQTRDPPVLPTVSQLTQKAGEGEQVEVDGWDCSFPRDASRLEPSINVEPLSSLLAQFFSCVSCWDLRGSLLSLREGQALPVAGGLPSNLWEGLRLGPLNLQDPFDLSHNVAANVTSRVAGRLQNCCRAAANYCRSLQYQRRSSRGRDWGLLPLLQPSSPSSLLSATPIPLPLAPFTQLTAALVQVFREALGCHIEQATKRTRSEGGGTGESSQGGTSKRLKVDGQKNCCEEGKEEQQGCAGDGGEDRVEEMVIEVGEMVQDWAMQSPGQPGDLPLTTGKHGAPGEEGQPSHAALAERGPKGHEAAQEWSQGEAGKGASLPSSASWRCALWHRVWQGRRRARRRLQQQTKEGAGGGAGTRAGWLATEAQVTQELKGLSGGEERPETEPLLSFVASVSPADRMLTVTPLQDPQGLFPDLHHFLQVFLPQAIRHLK [TUT1]
- solubility in G1/S (log2) [1]: -0.00805
- solubility change mitosis (log2) [2]: 0.00387
- thermal stability score [3, 4]: 0.3
- thermal stability score ([3]; cell cycle stage: mitosis): 1.52

Substance: PTEN
- solubility in G1/S (log2) [1]: -0.27
- solubility change mitosis (log2) [2]: 0.174
- thermal stability score [3, 4]: -0.257
- thermal stability score ([3]; cell cycle stage: mitosis): 0.0266

Substance: MIDSVKLRRDSAADFFSHYEYLCALQNSVPLPAVRACLREGVLDFNADRLRGVDWAPLLSTLKINKDLPLVSIKSFFQPWLGDTGSDMNKFCRSRVPAIRYKDVTFQLCKALKGCLSISSVLKNLELNGLILRERDLTILAKGLNKSASLVHLSLANCPIGDGGLEIICQGIKSSITLKTVNFTGCNLTWQGADHMAKILKYQTMRRHEETWAESLRYRRPDLDCMAGLRRITLNCNTLIGDLGACAFADSLSEDLWLRALDLQQCGLTNEGAKALLEALETNTTLVVLDIRKNPLIDHSMMKAVIKKVLQNGRSAKSEYQWITSPSVKEPSKTAKQKRRTIILGSGHKGKATIRIGLATKKPVSSGRKHSLGKEYYAPAPLPPGVSGFLPWRTAERAKRHRGFPLIKTRDICNQLQQPGFPVTVTVESPSSSEVEEVDDSSESVHEVPEKTSIEQEALQEKLEECLKQLKEERVIRLKVDKRVSELEHENAQLRNINFSLSEALHAQSLTNMILDDEGVLGSIENSFQKFHAFLDLLKDAGLGQLATMAGIDQSDFQLLGHPQMTSTVSNPPKEEKKALEDEKPEPKQNALGQMQNIQFQKITGDARIPLPLDSFPVPVSTPEGLGTSSNNLGVPATEQRQESFEGFIARMCSPSPDATSGTGSQRKEEELSRNSRSSSEKKTKTESH [CEP78]
- solubility in G1/S (log2) [1]: 0.0898
- solubility change mitosis (log2) [2]: 0.821
- thermal stability score [3, 4]: 2.82
- thermal stability score ([3]; cell cycle stage: mitosis): 3.49

Substance: MAAAAVDSAMEVVPALAEEAAPEVAGLSCLVNLPGEVLEYILCCGSLTAADIGRVSSTCRRLRELCQSSGKVWKEQFRVRWPSLMKHYSPTDYVNWLEEYKVRQKAGLEARKIVASFSKRFFSEHVPCNGFSDIENLEGPEIFFEDELVCILNMEGRKALTWKYYAKKILYYLRQQKILNNLKAFLQQPDDYESYLEGAVYIDQYCNPLSDISLKDIQAQIDSIVELVCKTLRGINSRHPSLAFKAGESSMIMEIELQSQVLDAMNYVLYDQLKFKGNRMDYYNALNLYMHQVLIRRTGIPISMSLLYLTIARQLGVPLEPVNFPSHFLLRWCQGAEGATLDIFDYIYIDAFGKGKQLTVKECEYLIGQHVTAALYGVVNVKKVLQRMVGNLLSLGKREGIDQSYQLLRDSLDLYLAMYPDQVQLLLLQARLYFHLGIWPEKSFCLVLKVLDILQHIQTLDPGQHGAVGYLVQHTLEHIERKKEEVGVEVKLRSDEKHRDVCYSIGLIMKHKRYGYNCVIYGWDPTCMMGHEWIRNMNVHSLPHGHHQPFYNVLVEDGSCRYAAQENLEYNVEPQEISHPDVGRYFSEFTGTHYIPNAELEIRYPEDLEFVYETVQNIYSAKKENIDE [FBXO21]
- solubility in G1/S (log2) [1]: -0.126
- solubility change mitosis (log2) [2]: -0.0785
- thermal stability score [3, 4]: 0.858
- thermal stability score ([3]; cell cycle stage: mitosis): 1.12

Substance: MSFNLQSSKKLFIFLGKSLFSLLEAMIFALLPKPRKNVAGEIVLITGAGSGLGRLLALQFARLGSVLVLWDINKEGNEETCKMAREAGATRVHAYTCDCSQKEGVYRVADQVKKEVGDVSILINNAGIVTGKKFLDCPDELMEKSFDVNFKAHLWTYKAFLPAMIANDHGHLVCISSSAGLSGVNGLADYCASKFAAFGFAESVFVETFVQKQKGIKTTIVCPFFIKTGMFEGCTTGCPSLLPILEPKYAVEKIVEAILQEKMYLYMPKLLYFMMFLKSFLPLKTGLLIADYLGILHAMDGFVDQKKKL [SDR16C5]
- solubility in G1/S (log2) [1]: -0.478
- solubility change mitosis (log2) [2]: -0.0428
- thermal stability score [3, 4]: 0.864
- thermal stability score ([3]; cell cycle stage: mitosis): -0.987

Substance: MKEEAFLRRRFSLCPPSSTPQKVDPRKLTRNLLLSGDNELYPLSPGKDMEPNGPSLPRDEGPPTPSSATKVPPAEYRLCNGSDKECVSPTARVTKKETLKAQKENYRQEKKRATRQLLSALTDPSVVIMADSLKIRGTLKSWTKLWCVLKPGVLLIYKTPKVGQWVGTVLLHCCELIERPSKKDGFCFKLFHPLDQSVWAVKGPKGESVGSITQPLPSSYLIFRAASESDGRCWLDALELALRCSSLLRLGTCKPGRDGEPGTSPDASPSSLCGLPASATVHPDQDLFPLNGSSLENDAFSDKSERENPEESDTETQDHSRKTESGSDQSETPGAPVRRGTTYVEQVQEELGELGEASQVETVSEENKSLMWTLLKQLRPGMDLSRVVLPTFVLEPRSFLNKLSDYYYHADLLSRAAVEEDAYSRMKLVLRWYLSGFYKKPKGIKKPYNPILGETFRCCWFHPQTDSRTFYIAEQVSHHPPVSAFHVSNRKDGFCISGSITAKSRFYGNSLSALLDGKATLTFLNRAEDYTLTMPYAHCKGILYGTMTLELGGKVTIECAKNNFQAQLEFKLKPFFGGSTSINQISGKITSGEEVLASLSGHWDRDVFIKEEGSGSSALFWTPSGEVRRQRLRQHTVPLEEQTELESERLWQHVTRAISKGDQHRATQEKFALEEAQRQRARERQESLMPWKPQLFHLDPITQEWHYRYEDHSPWDPLKDIAQFEQDGILRTLQQEAVARQTTFLGSPGPRHERSGPDQRLRKASDQPSGHSQATESSGSTPESCPELSDEEQDGDFVPGGESPCPRCRKEARRLQALHEAILSIREAQQELHRHLSAMLSSTARAAQAPTPGLLQSPRSWFLLCVFLACQLFINHILK [OSBPL5]
- solubility in G1/S (log2) [1]: -0.0107
- solubility change mitosis (log2) [2]: 0.12
- thermal stability score [3, 4]: 0.206
- thermal stability score ([3]; cell cycle stage: mitosis): 0.353

Substance: DENND4A
- solubility in G1/S (log2) [1]: 0.0407
- solubility change mitosis (log2) [2]: -0.246
- thermal stability score [3, 4]: -0.12
- thermal stability score ([3]; cell cycle stage: mitosis): -0.608

Substance: MTQPVPRLSVPAALALGSAALGAAFATGLFLGRRCPPWRGRREQCLLPPEDSRLWQYLLSRSMREHPALRSLRLLTLEQPQGDSMMTCEQAQLLANLARLIQAKKALDLGTFTGYSALALALALPADGRVVTCEVDAQPPELGRPLWRQAEAEHKIDLRLKPALETLDELLAAGEAGTFDVAVVDADKENCSAYYERCLQLLRPGGILAVLRVLWRGKVLQPPKGDVAAECVRNLNERIRRDVRVYISLLPLGDGLTLAFKI [COMTD1]
- solubility in G1/S (log2) [1]: 0.16
- solubility change mitosis (log2) [2]: 0.00811
- thermal stability score [3, 4]: -0.487
- thermal stability score ([3]; cell cycle stage: mitosis): 0.44

Substance: LAMA3
- solubility in G1/S (log2) [1]: -0.331
- solubility change mitosis (log2) [2]: 0.0773
- thermal stability score [3, 4]: -0.604
- thermal stability score ([3]; cell cycle stage: mitosis): -0.145

Substance: MQSKVTGNMPTQSLLMYMDGPEVIGSSLGSPMEMEDALSMKGTAVVPFRATQEKNVIQIEGYMPLDCMFCSQTFTHSEDLNKHVLMQHRPTLCEPAVLRVEAEYLSPLDKSQVRTEPPKEKNCKENEFSCEVCGQTFRVAFDVEIHMRTHKDSFTYGCNMCGRRFKEPWFLKNHMRTHNGKSGARSKLQQGLESSPATINEVVQVHAAESISSPYKICMVCGFLFPNKESLIEHRKVHTKKTAFGTSSAQTDSPQGGMPSSREDFLQLFNLRPKSHPETGKKPVRCIPQLDPFTTFQAWQLATKGKVAICQEVKESGQEGSTDNDDSSSEKELGETNKGSCAGLSQEKEKCKHSHGEAPSVDADPKLPSSKEKPTHCSECGKAFRTYHQLVLHSRVHKKDRRAGAESPTMSVDGRQPGTCSPDLAAPLDENGAVDRGEGGSEDGSEDGLPEGIHLDKNDDGGKIKHLTSSRECSYCGKFFRSNYYLNIHLRTHTGEKPYKCEFCEYAAAQKTSLRYHLERHHKEKQTDVAAEVKNDGKNQDTEDALLTADSAQTKNLKRFFDGAKDVTGSPPAKQLKEMPSVFQNVLGSAVLSPAHKDTQDFHKNAADDSADKVNKNPTPAYLDLLKKRSAVETQANNLICRTKADVTPPPDGSTTHNLEVSPKEKQTETAADCRYRPSVDCHEKPLNLSVGALHNCPAISLSKSLIPSITCPFCTFKTFYPEVLMMHQRLEHKYNPDVHKNCRNKSLLRSRRTGCPPALLGKDVPPLSSFCKPKPKSAFPAQSKSLPSAKGKQSPPGPGKAPLTSGIDSSTLAPSNLKSHRPQQNVGVQGAATRQQQSEMFPKTSVSPAPDKTKRPETKLKPLPVAPSQPTLGSSNINGSIDYPAKNDSPWAPPGRDYFCNRSASNTAAEFGEPLPKRLKSSVVALDVDQPGANYRRGYDLPKYHMVRGITSLLPQDCVYPSQALPPKPRFLSSSEVDSPNVLTVQKPYGGSGPLYTCVPAGSPASSSTLEGKRPVSYQHLSNSMAQKRNYENFIGNAHYRPNDKKT [ZNF217]
- solubility in G1/S (log2) [1]: -0.201
- solubility change mitosis (log2) [2]: 0.0502
- thermal stability score [3, 4]: -1.13
- thermal stability score ([3]; cell cycle stage: mitosis): -0.808

Substance: MAALTIATGTGNWFSALALGVTLLKCLLIPTYHSTDFEVHRNWLAITHSLPISQWYYEATSEWTLDYPPFFAWFEYILSHVAKYFDQEMLNVHNLNYSSSRTLLFQRFSVIFMDVLFVYAVRECCKCIDGKKVGKELTEKPKFILSVLLLWNFGLLIVDHIHFQYNGFLFGLMLLSIARLFQKRHMEGAFLFAVLLHFKHIYLYVAPAYGVYLLRSYCFTANKPDGSIRWKSFSFVRVISLGLVVFLVSALSLGPFLALNQLPQVFSRLFPFKRGLCHAYWAPNFWALYNALDKVLSVIGLKLKFLDPNNIPKASMTSGLVQQFQHTVLPSVTPLATLICTLIAILPSIFCLWFKPQGPRGFLRCLTLCALSSFMFGWHVHEKAILLAILPMSLLSVGKAGDASIFLILTTTGHYSLFPLLFTAPELPIKILLMLLFTIYSISSLKTLFRKEKPLFNWMETFYLLGLGPLEVCCEFVFPFTSWKVKYPFIPLLLTSVYCAVGITYAWFKLYVSVLIDSAIGKTKKQ [ALG8]
- solubility in G1/S (log2) [1]: -0.668
- solubility change mitosis (log2) [2]: -0.131
- thermal stability score [3, 4]: -0.785
- thermal stability score ([3]; cell cycle stage: mitosis): -1.28

Substance: MAASKTQGAVARMQEDRDGSCSTVGGVGYGDSKDCILEPLSLPESPGGTTTLEGSPSVPCIFCEEHFPVAEQDKLLKHMIIEHKIVIADVKLVADFQRYILYWRKRFTEQPITDFCSVIRINSTAPFEEQENYFLLCDVLPEDRILREELQKQRLREILEQQQQERNDTNFHGVCMFCNEEFLGNRSVILNHMAREHAFNIGLPDNIVNCNEFLCTLQKKLDNLQCLYCEKTFRDKNTLKDHMRKKQHRKINPKNREYDRFYVINYLELGKSWEEVQLEDDRELLDHQEDDWSDWEEHPASAVCLFCEKQAETIEKLYVHMEDAHEFDLLKIKSELGLNFYQQVKLVNFIRRQVHQCRCYGCHVKFKSKADLRTHMEETKHTSLLPDRKTWDQLEYYFPTYENDTLLCTLSDSESDLTAQEQNENVPIISEDTSKLYALKQSSILNQLLL [ZNF277]
- solubility in G1/S (log2) [1]: -0.685
- solubility change mitosis (log2) [2]: 0.173
- thermal stability score [3, 4]: 0.293
- thermal stability score ([3]; cell cycle stage: mitosis): 1.38
